Data taken from the DeepSol protein solubility set.

Experiment: soluble on expression in E. coli; label from the status in PepcDB or PDB records

Soluble on expression in E. coli, not soluble:
VYDNDIDTGAKNTLNLDEELQLGELSLDTIRSLEKLAPFGMDNKKPVFWLHDITVTQARTMGQNGAHLKFKVKQGKASFDVVAFNKGHLLQEFQQAQGLELAVTLSVNVWNGQTTLQ
MGSDKIHHHHHHMLVYPSGIDLSTSTLRYLSDLLRARRRERGTRWRRLTTDRQALLALAHLRCGHTYAQLAAGFGIGLATVYRYIVEAVEVLAALAPTLQQAMTFAANKAFVILDGTLLHIDRIAADRPYYSGKHKRHGMNVQVIADAFGRLLWASPALPGAVHDIKAARIHGIIEALTQAGIRTWADKGYQGAQGTIRVPYRGRWSTLPAGKRAVNSSHAKIRAVGEQANATLKSWRLLRKLRCSTTRITDIVKAVLALHLATAA
MGSDKIHHHHHHMSISVKSNRALFDLDLLRAIVVVADCGSFTTAAARLHSTQSTISQKVRRLEDMVGHRLLVRGNRDVLPTDAGQTLLGYARHMLALNDQMLEALAGAMVGTTVRLGVPEDFVGGRTTNALSAFSRLHPQVKLEVTSGLCRDLSQAYDNGELDLVLLKQRRNSREGVACWPERLQWIDSARTPAFELDPIPLVTFPPRGLYREDMINAIEGMGRRWRISFTSSSLSGIQAAVADGMGISLLPPRAATGEHRVLGAGQGLPEVDSYEIVIVHRPTADVMVKALAEVMTQLLAGGGI
MGSLRLTERPHVRKARLWVKLSDGKEGWVRCDLCQRRCVIAPGKYGACGVRKNIGGELYTLVYGLLSASNIDPIEKKPLLHFYPGSTVLSISTVGCNFFCQFCQNFEISQSRLEKGLYGVYRTPEEVVRLALVYGADGITYTYNEPTIFFETVYDVAKEAKKHGLFNTMVTNGYMTPEAVDELGSLIDAATVDFKGGGDPEFYRKIMFVPDPEPIYEAILAMKDKGWWIEITNLVVPILGDKPEYVRRMARWIVENLGPEVPFHLLRFHPDYKLRHVPHTPVKTLEKLARIAMEEGLKHVYIGNVWGHPLEDTYCPKCGYKVVDREGFAIVEWRLTSDFRCPRCGYKLNFRGEYTPRNINYPMPVM

Soluble on expression in E. coli, soluble:
MSLTMYADLVLHGGSIATLDDKLEQAQAVAIAAGRIIAVGSDAHCLALAGPGTRRIGLGGACVMPGINDSHCHPDGQAVKAGRWDDVSQVATQQALLARIADFHRRMPAGAWYLGFRFDDTHSGGYPARQALEQAAPGRPVFLLRRDAQVGLASAPALAALLASGLATQVPPHCLDAATGLARGRGVFAFTTHIAAADSLDDYLEGFPTLFAEMGRMGITSVHNALTSALAVQAYRALHGAGRLPVRVGMMLNGRDQRLVDETLAAGLRFGAGDDRLYLLGVEYGSDGSTSGRTAAYYQPYVGEEGGDGRPANRGDVNFSAEDLAAKVGRVMAAGLQAAATGNGDRGIDFALDAFEQGLRAHPGAVPPRIEHCCCAPPAIQQRMAALGVIDSSAAGFAYNLGDAYLRNRPSAEMAWMWPHRDMLDRGVLVCAHSDAPVCERNPFLGMWSMVTRKTASGASLGAGQAITPLEAMRCYTANPARAEGQAARKGTLSPGKLADLIVLDRDPCAVDPDEIRHTQVLATLVGGQATYRAAGAPSWADELPMREEGHHHHHH
MGHHHHHHSHMPARTDSVIIADQTPTPTRFLKNCEEVGLFNELASSFEHEFKKAADEDEKKARSRTVAKKLVAAAGPLDMSLPSTPDIKIKEEEPVEVDSSPPDSPASSPCSPPLKEKEVTPKPVLISTPTPTIVRPGSLPLHLGYDPLHPTLPSPTSVITQAPPSNRQMGSPTGSLPLVMHLANGQTMPVLPGPPVQMPSVISLARPVSMVPNIPGIPGPPVNSSGSISPSGHPIPSEAKMRLKATLTHQVSSINGGCGMVVGTASTMVTARPEQSQILIQHPDAPSPAQPQVSPAQPTPSTGGRRRRTVDEDPDERRQRFLERNRAAASRCRQKRKLWVSSLEKKAEELTSQNIQLSNEVTLLRNEVAQLKQLLLAHKDCPVTALQKKTQGYLESPKESSEPTGSPAPVIQHSSATAPSNGLSVRSAAEAVATSVLTQMA
